# Measured values as given in article PMC4877575.
# How the values were obtained:
# [1] = target: polarity-marked microtubules (polymerised alpha-beta tubulin) (porcine) (UniProt P02554); test: single molecule fluorescence motility assay; purified Cin8-3GFP-6His variants on polarity-marked Taxol MTs; MB-45 (MB with 45 mM NaCl, IS = 0.187), 4 mM ATP; 90 s recordings
# [2] = target: polarity-marked microtubules (polymerised alpha-beta tubulin) (porcine) (UniProt P02554); test: single molecule fluorescence motility assay; purified Cin8-3GFP-6His variants on polarity-marked Taxol MTs; MB-90 (MB with 90 mM NaCl, IS = 0.232), 4 mM ATP; 90 s recordings
# [3] = target: polarity-marked microtubules (polymerised alpha-beta tubulin) (porcine) (UniProt P02554); test: single molecule fluorescence motility assay; purified Cin8-3GFP-6His variants on polarity-marked Taxol MTs; MB-135 (MB with 135 mM NaCl, IS = 0.277), 4 mM ATP; 90 s recordings
# [4] = target: polarity-marked microtubules (polymerised alpha-beta tubulin) (porcine) (UniProt P02554); test: single molecule fluorescence motility assay; Cin8-3GFP variants in whole cell extract on polarity-marked Taxol MTs; MB-30 (MB with 30 mM NaCl, IS = 0.172), 4 mM ATP; 90 s recordings, 1 s frames
# [5] = target: polarity-marked microtubules (polymerised alpha-beta tubulin) (porcine) (UniProt P02554); test: single molecule fluorescence motility assay; Cin8-3GFP variants in whole cell extract on polarity-marked Taxol MTs; MB-80 (MB with 80 mM NaCl, IS = 0.222), 4 mM ATP; 90 s recordings, 1 s frames
% of moving molecules with interaction times longer than 90 s [1] [%],% of moving molecules with interaction times longer than 90 s [2] [%],% of moving molecules with interaction times longer than 90 s [3] [%],% of moving molecules with interaction times longer than 90 s [4] [%],% of moving molecules with interaction times longer than 90 s [5] [%],Substance
71,53,14,–,–,purified wild type Cin8-3GFP-6His (plasmid pOS2) (from UniProt P27895 1-1000) (natural protein)
–,–,–,75,21,"wild type Cin8-3GFP (whole cell extract, strain LGY 2055) (from UniProt P27895 1-1000) (natural protein)"
